± gives the standard deviation of the averaged measurements.
How the values were obtained:
MCF7 = experiment: percentage of EdU-negative (G0-arrested) nuclei per well, 72 h; higher = more G0 arrest; settings: reference: sequence is the full UniProt precursor, the tested protein was the secreted form or ectodomain
hTERT-HMEC = experiment: as above; settings: reference: sequence is the full UniProt precursor, the tested protein was the secreted form or ectodomain
[1] = protein concentration 0.03125 µM
[2] = protein concentration 0.3125 µM
[3] = protein concentration 0.03092 µM
[4] = protein concentration 0.3092 µM
[5] = protein concentration 0.0193425 µM
[6] = protein concentration 0.193425 µM
[7] = protein concentration 0.0111429 µM
[8] = protein concentration 0.111429 µM
[9] = protein concentration 0.01025 µM
[10] = protein concentration 0.1025 µM
[11] = protein concentration 0.01975 µM
[12] = protein concentration 0.1975 µM
[13] = protein concentration 0.00975 µM
[14] = protein concentration 0.0975 µM
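Further: secreted proteins added to cultured cells, EdU pulse at the end, nuclei found by Hoechst imaging, EdU status from nuclear versus surrounding ring intensity ratio, PBS as neutral control.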

Sequence: MLSCRLQCALAALSIVLALGCVTGAPSDPRLRQFLQKSLAAAAGKQELAKYFLAELLSEPNQTENDALEPEDLSQAAEQDEMRLELQRSANSNPAMAPRERKAGCKNFFWKTFTSC
- percentage of EdU-negative (MCF7; [1]): 25.9 ± 3.1%
- percentage of EdU-negative (MCF7; [2]): 27 ± 1.9%
- percentage of EdU-negative (hTERT-HMEC; [1]): 5.72 ± 0.93%
- percentage of EdU-negative (hTERT-HMEC; [2]): 4.88 ± 0.35%

Sequence: MHSFPPLLLLLFWGVVSHSFPATLETQEQDVDLVQKYLEKYYNLKNDGRQVEKRRNSGPVVEKLKQMQEFFGLKVTGKPDAETLKVMKQPRCGVPDVAQFVLTEGNPRWEQTHLTYRIENYTPDLPRADVDHAIEKAFQLWSNVTPLTFTKVSEGQADIMISFVRGDHRDNSPFDGPGGNLAHAFQPGPGIGGDAHFDEDERWTNNFREYNLHRVAAHELGHSLGLSHSTDIGALMYPSYTFSGDVQLAQDDIDGIQAIYGRSQNPVQPIGPQTPKACDSKLTFDAITTIRGEVMFFKDRFYMRTNPFYPEVELNFISVFWPQLPNGLEAAYEFADRDEVRFFKGNKYWAVQGQNVLHGYPKDIYSSFGFPRTVKHIDAALSEENTGKTYFFVANKYWRYDEYKRSMDPGYPKMIAHDFPGIGHKVDAVFMKDGFFYFFHGTRQYKFDPKTKRILTLQKANSWFNCRKN
- percentage of EdU-negative (MCF7; [3]): 24.3 ± 3.2%
- percentage of EdU-negative (MCF7; [4]): 26.43 ± 0.08%
- percentage of EdU-negative (hTERT-HMEC; [3]): 4.22 ± 0.79%
- percentage of EdU-negative (hTERT-HMEC; [4]): 6.403 ± 0.048%

Sequence: MDLSAAAALCLWLLSACRPRDGLEAAAVLRAAGAGPVRSPGGGGGGGGGGRTLAQAAGAAAVPAAAVPRARAARRAAGSGFRNGSVVPHHFMMSLYRSLAGRAPAGAAAVSASGHGRADTITGFTDQATQDESAAETGQSFLFDVSSLNDADEVVGAELRVLRRGSPESGPGSWTSPPLLLLSTCPGAARAPRLLYSRAAEPLVGQRWEAFDVADAMRRHRREPRPPRAFCLLLRAVAGPVPSPLALRRLGFGWPGGGGSAAEERAVLVVSSRTQRKESLFREIRAQARALGAALASEPLPDPGTGTASPRAVIGGRRRRRTALAGTRTAQGSGGGAGRGHGRRGRSRCSRKPLHVDFKELGWDDWIIAPLDYEAYHCEGLCDFPLRSHLEPTNHAIIQTLLNSMAPDAAPASCCVPARLSPISILYIDAANNVVYKQYEDMVVEACGCR [Q7Z4P5]
- percentage of EdU-negative (MCF7; [5]): 26.75 ± 0.031%
- percentage of EdU-negative (MCF7; [6]): 28.9 ± 2.2%
- percentage of EdU-negative (hTERT-HMEC; [5]): 5.309 ± 0.0057%
- percentage of EdU-negative (hTERT-HMEC; [6]): 5.34 ± 1.2%

Sequence: MALGLLIAVPLLLQAAPRGAAHYEMMGTCRMICDPYTAAPGGEPPGAKAQPPGPSTAALEVMQDLSANPPPPFIQGPKGDPGRPGKPGPRGPPGEPGPPGPRGPPGEKGDSGRPGLPGLQLTAGTASGVGVVGGGAGVGGDSEGEVTSALSATFSGPKIAFYVGLKSPHEGYEVLKFDDVVTNLGNHYDPTTGKFSCQVRGIYFFTYHILMRGGDGTSMWADLCKNGQVRASAIAQDADQNYDYASNSVVLHLDSGDEVYVKLDGGKAHGGNNNKYSTFSGFLLYPD [Q7Z5L3]
- percentage of EdU-negative (MCF7; [7]): 22.8 ± 1.6%
- percentage of EdU-negative (MCF7; [8]): 30 ± 0.7%
- percentage of EdU-negative (hTERT-HMEC; [7]): 5.39 ± 0.86%
- percentage of EdU-negative (hTERT-HMEC; [8]): 5.7 ± 1.1%

Sequence: MMLRLLSSLLLVAVASGYGPPSSHSSSRVVHGEDAVPYSWPWQVSLQYEKSGSFYHTCGGSLIAPDWVVTAGHCISRDLTYQVVLGEYNLAVKEGPEQVIPINSEELFVHPLWNRSCVACGNDIALIKLSRSAQLGDAVQLASLPPAGDILPNKTPCYITGWGRLYTNGPLPDKLQQARLPVVDYKHCSRWNWWGSTVKKTMVCAGGYIRSGCNGDSGGPLNCPTEDGGWQVHGVTSFVSAFGCNFIWKPTVFTRVSAFIDWIEETIASH
- percentage of EdU-negative (MCF7; [9]): 25.2 ± 3%
- percentage of EdU-negative (MCF7; [10]): 24.7 ± 1.6%
- percentage of EdU-negative (hTERT-HMEC; [9]): 5.71 ± 1.5%
- percentage of EdU-negative (hTERT-HMEC; [10]): 5.66 ± 0.78%

Sequence: MAAAASPAFLLCLPLLHLLSGWSRAGWVDTHCLCYDFIITPKSRPEPQWCEVQGLVDERPFLHYDCVNHKAKAFASLGKKVNVTKTWEEQTETLRDVVDFLKGQLLDIQVENLIPIEPLTLQARMSCEHEAHGHGRGSWQFLFNGQKFLLFDSNNRKWTALHPGAKKMTEKWEKNRDVTMFFQKISLGDCKMWLEEFLMYWEQMLDPTKPPSLAPGTTQPKAMATTLSPWSLLIIFLCFILAGR [Q9BZM6]
- percentage of EdU-negative (MCF7; [11]): 24.2 ± 1.6%
- percentage of EdU-negative (MCF7; [12]): 25.4 ± 1.1%
- percentage of EdU-negative (hTERT-HMEC; [11]): 4.75 ± 0.89%
- percentage of EdU-negative (hTERT-HMEC; [12]): 6.21 ± 1.1%

Sequence: MVAATVAAAWLLLWAAACAQQEQDFYDFKAVNIRGKLVSLEKYRGSVSLVVNVASECGFTDQHYRALQQLQRDLGPHHFNVLAFPCNQFGQQEPDSNKEIESFARRTYSVSFPMFSKIAVTGTGAHPAFKYLAQTSGKEPTWNFWKYLVAPDGKVVGAWDPTVSVEEVRPQITALVRKLILLKREDL [Q96SL4]
- percentage of EdU-negative (MCF7; [13]): 25.2 ± 2%
- percentage of EdU-negative (MCF7; [14]): 27.1 ± 1.4%
- percentage of EdU-negative (hTERT-HMEC; [13]): 4.59 ± 0.052%
- percentage of EdU-negative (hTERT-HMEC; [14]): 5.66 ± 0.28%

Reference: the supplement of paper PMC11316812
